The record followed here is article PMC11900463.

Sequences and labels used below:
T1: sCPR (truncated soluble form of rat NADPH–cytochrome P450 reductase) (rat) (UniProt P00388)
T1 sequence (P00388 whole entry, looked up): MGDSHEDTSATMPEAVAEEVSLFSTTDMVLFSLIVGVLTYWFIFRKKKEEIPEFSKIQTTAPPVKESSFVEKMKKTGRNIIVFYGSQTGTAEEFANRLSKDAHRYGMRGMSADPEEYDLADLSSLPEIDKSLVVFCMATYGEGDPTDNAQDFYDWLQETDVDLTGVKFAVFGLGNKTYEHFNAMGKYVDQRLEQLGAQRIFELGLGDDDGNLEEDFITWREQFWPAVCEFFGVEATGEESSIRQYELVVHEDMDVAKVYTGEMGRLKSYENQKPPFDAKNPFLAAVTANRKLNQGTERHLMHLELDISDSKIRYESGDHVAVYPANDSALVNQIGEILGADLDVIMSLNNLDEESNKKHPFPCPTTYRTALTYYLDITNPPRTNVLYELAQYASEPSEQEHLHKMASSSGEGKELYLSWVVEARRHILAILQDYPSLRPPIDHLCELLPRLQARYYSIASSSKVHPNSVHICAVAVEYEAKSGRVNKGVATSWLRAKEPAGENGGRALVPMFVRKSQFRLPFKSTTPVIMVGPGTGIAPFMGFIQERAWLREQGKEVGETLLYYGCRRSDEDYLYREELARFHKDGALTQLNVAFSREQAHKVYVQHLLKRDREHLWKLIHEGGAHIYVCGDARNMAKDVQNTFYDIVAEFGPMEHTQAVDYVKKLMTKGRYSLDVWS

B1: 6xHis-tagged C281S tsHO-2 (enzyme)
chain: MADLSELLKEGTKEAHDRAENTQFVKDFLKGNIKKELFKLATTALYFTYSALEEEMDRNKDHPAFAPLYFPTELHRKEALIKDMEYFFGENWEEQVKCSEAAQKYVDRIHYVGQNEPELLVAHAYTRYMGDLSGGQVLKKVAQRALKLPSTGEGTQFYLFEHVDNAQQFKQFYRARMNALDLSMKTKERIVEEANKAFEYNMQIFSELDQAGSMLTKETLEDGLPVHDGKGDVRKCPFYAAQPDKGTLGGSNSPFRTAMAVLRK
B2: 6xHis-tagged C264S/C281S tsHO-2 (enzyme)
chain: MADLSELLKEGTKEAHDRAENTQFVKDFLKGNIKKELFKLATTALYFTYSALEEEMDRNKDHPAFAPLYFPTELHRKEALIKDMEYFFGENWEEQVKCSEAAQKYVDRIHYVGQNEPELLVAHAYTRYMGDLSGGQVLKKVAQRALKLPSTGEGTQFYLFEHVDNAQQFKQFYRARMNALDLSMKTKERIVEEANKAFEYNMQIFSELDQAGSMLTKETLEDGLPVHDGKGDVRKSPFYAAQPDKGTLGGSNSPFRTAMAVLRK
B3: 6xHis-tagged C264S tsHO-2 (enzyme)
chain: MADLSELLKEGTKEAHDRAENTQFVKDFLKGNIKKELFKLATTALYFTYSALEEEMDRNKDHPAFAPLYFPTELHRKEALIKDMEYFFGENWEEQVKCSEAAQKYVDRIHYVGQNEPELLVAHAYTRYMGDLSGGQVLKKVAQRALKLPSTGEGTQFYLFEHVDNAQQFKQFYRARMNALDLSMKTKERIVEEANKAFEYNMQIFSELDQAGSMLTKETLEDGLPVHDGKGDVRKSPFYAAQPDKGTLGGSNCPFRTAMAVLRK

The target in the experiment is T1, sCPR (truncated soluble form of rat NADPH–cytochrome P450 reductase) (rat).
Consider “6xHis-tagged ΔHRM tsHO-2 (from UniProt P23711 29-292) (enzyme)”, for which the apparent reduction rate constant of heme by sCPR (formation of the CO-bound heme complex, CO-saturated, anaerobic, 30 °C; non-His-tagged enzyme) was 106 min⁻¹ and the enzymatic activity (rate of bilirubin formation at 37 °C with 2.9 μM sCPR, 40 μM heme, NADPH; non-His-tagged enzyme) worked out at 14.3 min⁻¹.
In the same order, the values of B1 are 89.6 min⁻¹ and 7.32 min⁻¹.
Turning to B2, the apparent reduction rate constant of heme by sCPR (formation of the CO-bound heme complex, CO-saturated, anaerobic, 30 °C; non-His-tagged enzyme) turned out to be 113 min⁻¹ and the enzymatic activity (rate of bilirubin formation at 37 °C with 2.9 μM sCPR, 40 μM heme, NADPH; non-His-tagged enzyme) is 11.2 min⁻¹.
Turning to B3, the apparent reduction rate constant of heme by sCPR (formation of the CO-bound heme complex, CO-saturated, anaerobic, 30 °C; non-His-tagged enzyme) is 93.2 min⁻¹ and the enzymatic activity (rate of bilirubin formation at 37 °C with 2.9 μM sCPR, 40 μM heme, NADPH; non-His-tagged enzyme) came to 4.91 min⁻¹.
